How the values were obtained:
[1] = target: T1, GPNMB (Homo sapiens, UniProt Q14956); test: Binning of antibodies (Luminex competitive binding)
T1 construct: we cloned the human CG56972 extracellular domain (ECD; aa 23-480); made in house; host or cells: HEK 293 cells
T1 sequence (Q14956 23-492): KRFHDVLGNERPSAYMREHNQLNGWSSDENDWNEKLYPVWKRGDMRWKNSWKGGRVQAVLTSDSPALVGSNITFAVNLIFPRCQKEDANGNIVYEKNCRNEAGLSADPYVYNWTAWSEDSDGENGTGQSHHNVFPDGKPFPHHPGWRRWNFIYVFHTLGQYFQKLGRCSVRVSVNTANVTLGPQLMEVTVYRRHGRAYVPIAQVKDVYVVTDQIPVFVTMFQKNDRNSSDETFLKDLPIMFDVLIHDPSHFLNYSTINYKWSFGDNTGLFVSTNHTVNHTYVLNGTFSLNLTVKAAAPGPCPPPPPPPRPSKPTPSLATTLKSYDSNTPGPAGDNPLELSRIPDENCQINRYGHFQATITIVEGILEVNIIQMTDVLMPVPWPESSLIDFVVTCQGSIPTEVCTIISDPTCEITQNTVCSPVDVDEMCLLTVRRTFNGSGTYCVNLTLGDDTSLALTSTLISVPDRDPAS
Procedure: Certain antibodies, described herein were binned in accordance with the protocol described in U.S. Patent Application Publication No. 20030157730. M×hIgG conjugated beads are prepared for coupling to primary antibody. The volume of supernatant needed is calculated using the following formula: (n+10)×50 μL (where n=total number of samples on plate). Where the concentration is known, 0.5 μg/mL is used. Bead stock is gently vortexed, then diluted in supernatant to a concentration of 2500 of each bead per well or 0.5×10^5/mL and incubated on a shaker in the dark at RT overnight, or 2 hours if at a known concentration of 0.5 μg/mL. Following aspiration, 50 μL of each bead is added to each well of filter plate, then washed once by adding 100 μL/well wash buffer and aspirating. Antigen and controls are added to filter plate 50 μL/well then covered and allowed to incubate in the dark for 1 hour on shaker. Following a wash step, a secondary unknown antibody is added at 50 μL/well using the same dilution (or concentration if known) as is used for the primary antibody. The plates are then incubated in the dark for 2 hours at RT on shaker followed by a wash step. Next, 50 μL/well biotinylated m×hIgG diluted 1:500 is added and allowed to incubate in the dark for 1 hour on shaker at RT. Following a wash step, 50 μL/well Streptavidin-PE is added at 1:1000 and allowed to incubate in the dark for 15 minutes on shaker at RT. Following a wash step, each well is resuspended in 80 μL blocking buffer and read using Luminex. […] Competitive binding by antibodies from […] supports antibody specificity for similar or adjacent epitopes. Non competitive binding supports antibody specificity for unique epitopes.
Three bins were created to further test the binding of six anti-GPNMB antibodies. Bin 1 included GPNMB antibodies (1.2.1), (1.10.1), and (2.22.1). Bin 2 included GPNMB antibodies (2.3.1) and (1.15.1), and Bin 3 included GPNMB antibody (2.10.1). The results of the binning assays are provided below in Tables 8 and 9.

[2] = target: T1, GPNMB; test: ELISA of hybridoma supernatants for binding to GPNMB
Procedure: After 14 days of culture, hybridoma supernatants were screened for GPNMB specific monoclonal antibodies. In the Primary screen, the ELISA plates (Fisher, Cat. No. 12-565-136) were coated with 50 μL/well of GPNMB (1 μg/mL) in Coating Buffer (0.1 M Carbonate Buffer, pH 9.6, NaHCO3 8.4 g/L), then incubated at 4° C. overnight. After incubation, the plates were washed with Washing Buffer (0.05% Tween 20 in PBS) three times. 200 μL/well Blocking Buffer (0.5% BSA, 0.1% Tween 20, 0.01% Thimerosal in 1×PBS) were added and the plates were incubated at room temperature for 1 h. After incubation, the plates were washed with Washing Buffer three times. Aliquots (50 μL/well) of hybridoma supernatants and positive and negative controls were added, and the plates were incubated at room temperature for 2 h. The positive control used throughout was serum from the relevant GPNMB immunized XenoMouse® mouse and the negative control was serum from the KLH-immunized relevant strain of XenoMouse® mouse. After incubation, the plates were washed three times with Washing Buffer. 100 μL/well of detection antibody goat anti-huIgGfc-HRP (Caltag, Cat. No. H10507, using concentration was 1:2000 dilution) was added and the plates were incubated at room temperature for 1 hour. After incubation, the plates were washed three times with Washing Buffer. 100 μl/well of TMB (BioFX Lab. Cat. No. TMSK-0100-01) was added, and the plates were allowed to develop for about 10 minutes (until negative control wells barely started to show color). 50 μl/well stop solution (TMB Stop Solution (BioFX Lab. Cat. No. STPR-0100-01) was then added and the plates were read on an ELISA plate reader at a wavelength of 450 nm.
Hybridoma supernatants were screened for binding to GPNMB by ELISA as described above in Example 2.

[3] = system: Melanoma cell lines; test: Clonogenic assay with 1.15.1-AE, melanoma panel; type: cell-based, human
Procedure: Melanoma cell lines were plated onto flat bottom 96-well tissue culture plates (Becton Dickinson, Franklin Lakes, N.J., USA). On day 2 or when cells reach ˜25% confluency, various concentrations of unconjugated and Auristatin E-conjugated 1.15.1 were added to cells. MAb 2.6.2-AE was also used as a conjugated isotype control in this study. On day 5, the cells were trypsinized, transferred to 6-well tissue culture plates and incubated at 37° C. Plates were examined daily. On days 8-10, all plates were Giemsa stained and colonies on the plates were counted.

CR011: fully human monoclonal antibody that specifically binds to GPNMB; VH SEQ ID NO: 20, VL SEQ ID NO: 29
bin ([1]; Table 8): VIII
binning signal against antibody 1.1 ([1]; Table 8): 91
binning signal against antibody 1.11 ([1]; Table 8): 10
binning signal against antibody 1.12 ([1]; Table 8): 15
binning signal against antibody 1.13 ([1]; Table 8): 13
binning signal against antibody 1.15 ([1]; Table 8): 0
binning signal against antibody 1.2 ([1]; Table 8): 79
binning signal against antibody 1.3 ([1]; Table 8): 71
binning signal against antibody 1.7 ([1]; Table 8): 21
binning signal against antibody 1.8 ([1]; Table 8): 8
binning signal against antibody 1.9 ([1]; Table 8): 12
binning signal against antibody xV5 ([1]; Table 8): 89
binning signal against column antibody 1.5 ([1]; Table 8): 15
binning signal against antibody 1.1 ([1]; Table 9): 127
binning signal against antibody 1.11 ([1]; Table 9): 19
binning signal against antibody 1.12 ([1]; Table 9): 21
binning signal against antibody 1.13 ([1]; Table 9): 5
binning signal against antibody 1.15 ([1]; Table 9): 0
binning signal against antibody 1.2 ([1]; Table 9): 90
binning signal against antibody 1.3 ([1]; Table 9): 51
binning signal against antibody 1.7 ([1]; Table 9): 17
binning signal against antibody 1.8 ([1]; Table 9): 12
binning signal against antibody 1.9 ([1]; Table 9): 19
binning signal against antibody xV5 ([1]; Table 9): 125
binning signal against column antibody 1.5 ([1]; Table 9): −9
bin ([1]; Table 9, Cut-off = 90): VIII
bin ([1]; three bins of six anti-GPNMB antibodies): Bin 2
Avg OD ([2]; antibody at 12.3 ng/mL): 0.168
Avg OD ([2]; antibody at 37 ng/mL): 0.381
Avg OD ([2]; antibody at 111 ng/mL): 0.701
Avg OD ([2]; antibody at 333 ng/mL): 0.902
Avg OD ([2]; antibody at 1 μg/mL): 1.051
Avg OD ([2]; antibody at 3 μg/mL): 1.159
effect on growth of all the melanoma cell lines tested (in words) [3]: no effect on growth

— US20130244255A1, “ANTIBODIES DIRECTED TO GPNMB AND USES THEREOF” (priority 2006, published 2013)
